Target: T1, human Gαi1 (human, UniProt P63096)
T1 construct: also called Gαi subunit; source: prepared as described (11)
Assay: cryo-EM structure; Rho-Gαiβγ-scFv16-Fab79, mixed 1:1.4:1.4 in 0.02% LMNG, purified by SEC; two conformations at 5.2 and 5.9 Å
Settings: both partners purified

T1 sequence (P63096 whole entry): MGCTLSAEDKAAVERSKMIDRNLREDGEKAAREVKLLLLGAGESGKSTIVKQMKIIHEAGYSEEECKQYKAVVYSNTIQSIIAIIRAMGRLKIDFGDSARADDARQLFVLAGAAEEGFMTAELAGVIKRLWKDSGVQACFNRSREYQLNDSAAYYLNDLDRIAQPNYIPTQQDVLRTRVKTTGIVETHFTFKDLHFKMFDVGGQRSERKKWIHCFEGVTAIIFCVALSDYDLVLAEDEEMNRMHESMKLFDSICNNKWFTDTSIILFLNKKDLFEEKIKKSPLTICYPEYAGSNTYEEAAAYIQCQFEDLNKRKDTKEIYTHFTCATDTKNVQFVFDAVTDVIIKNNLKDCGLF

B1: Fab79 (Fab, V domains shown)
VH: EVQLVESGGGLVKPGGSLKLSCAASGFTFSSYAMSWVRQTPEKRLEWVATISSRGLYTYFPDSMKGRFTISRDNAKNTLSLQMSSLRSEDTAMYYCLRGGGYDADYWGQGTTLTVSS
VL: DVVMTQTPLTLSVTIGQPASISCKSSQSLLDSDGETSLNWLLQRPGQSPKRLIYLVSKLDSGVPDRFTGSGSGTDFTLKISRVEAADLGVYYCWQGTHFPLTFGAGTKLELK
notes: Fab79 heavy chain; also in the deposited models PDB 8P13 and 8P15; Fab79 light chain; source: prepared as described (11); from mice immunized with the purified Rho-Gαiβγ complex
- binding result: binds

From article PMC13351892, “Tool antibody fragments reveal multiple conformations of the rhodopsin-Gi signaling complex” (Biophysical Journal, 2025)
